Results from patent publication US20150175708A1 (Eli Lilly, published 2015).

Legend:
[1] = target: EGFR on the cell surface of human tumor cell lines (human, UniProt P00533 25-1210); experiment: cell-based or functional assay
[2] = target: T1, human EGFR extracellular domain (EGFR-ECD) (human, UniProt P00533 25-645); experiment: SPR (Biacore), antibody captured on protein A chip, EGFR-ECD in solution, 25 C, 1:1 model
T1 construct: extracellular domain; also called human EGFR-ECD

[3] = target: T2, MET on the cell surface of human tumor cell lines (human, UniProt P08581 25-1390); experiment: cell-based or functional assay
[4] = target: extracellular domain of human MET (MET-ECD) (human, UniProt P08581 25-932); experiment: SPR (Biacore), antibody captured on protein A chip, MET-ECD in solution, 25 C, 1:1 model
[5] = target: T2, MET on the cell surface of human tumor …; experiment: cell-based or functional assay; remark: listed apart in the source

Chain of extracellular domain of human MET (MET-ECD) (P08581 25-932): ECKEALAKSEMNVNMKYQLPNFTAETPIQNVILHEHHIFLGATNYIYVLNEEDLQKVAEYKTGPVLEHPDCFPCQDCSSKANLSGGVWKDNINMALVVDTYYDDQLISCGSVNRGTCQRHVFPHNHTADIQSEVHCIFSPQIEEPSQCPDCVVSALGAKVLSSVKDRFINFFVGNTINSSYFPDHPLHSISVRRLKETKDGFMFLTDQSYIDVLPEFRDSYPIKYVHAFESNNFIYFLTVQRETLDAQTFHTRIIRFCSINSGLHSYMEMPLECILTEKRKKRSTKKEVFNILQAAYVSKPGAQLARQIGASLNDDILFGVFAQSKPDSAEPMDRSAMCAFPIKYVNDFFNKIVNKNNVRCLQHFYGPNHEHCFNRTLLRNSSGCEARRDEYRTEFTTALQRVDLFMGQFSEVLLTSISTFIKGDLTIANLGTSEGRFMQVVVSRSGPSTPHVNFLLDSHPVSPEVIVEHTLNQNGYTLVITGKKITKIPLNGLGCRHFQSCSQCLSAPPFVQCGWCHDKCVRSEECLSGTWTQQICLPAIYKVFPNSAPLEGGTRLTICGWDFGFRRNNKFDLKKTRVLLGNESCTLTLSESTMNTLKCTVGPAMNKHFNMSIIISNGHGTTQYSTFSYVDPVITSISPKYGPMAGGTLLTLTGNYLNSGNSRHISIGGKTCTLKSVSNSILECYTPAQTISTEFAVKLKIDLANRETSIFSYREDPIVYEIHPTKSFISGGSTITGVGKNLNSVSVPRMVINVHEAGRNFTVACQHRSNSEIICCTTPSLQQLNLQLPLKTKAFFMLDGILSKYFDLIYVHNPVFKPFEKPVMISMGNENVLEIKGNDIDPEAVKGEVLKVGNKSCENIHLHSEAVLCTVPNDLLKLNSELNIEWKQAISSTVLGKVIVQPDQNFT
T2 sequence (P08581 25-1390): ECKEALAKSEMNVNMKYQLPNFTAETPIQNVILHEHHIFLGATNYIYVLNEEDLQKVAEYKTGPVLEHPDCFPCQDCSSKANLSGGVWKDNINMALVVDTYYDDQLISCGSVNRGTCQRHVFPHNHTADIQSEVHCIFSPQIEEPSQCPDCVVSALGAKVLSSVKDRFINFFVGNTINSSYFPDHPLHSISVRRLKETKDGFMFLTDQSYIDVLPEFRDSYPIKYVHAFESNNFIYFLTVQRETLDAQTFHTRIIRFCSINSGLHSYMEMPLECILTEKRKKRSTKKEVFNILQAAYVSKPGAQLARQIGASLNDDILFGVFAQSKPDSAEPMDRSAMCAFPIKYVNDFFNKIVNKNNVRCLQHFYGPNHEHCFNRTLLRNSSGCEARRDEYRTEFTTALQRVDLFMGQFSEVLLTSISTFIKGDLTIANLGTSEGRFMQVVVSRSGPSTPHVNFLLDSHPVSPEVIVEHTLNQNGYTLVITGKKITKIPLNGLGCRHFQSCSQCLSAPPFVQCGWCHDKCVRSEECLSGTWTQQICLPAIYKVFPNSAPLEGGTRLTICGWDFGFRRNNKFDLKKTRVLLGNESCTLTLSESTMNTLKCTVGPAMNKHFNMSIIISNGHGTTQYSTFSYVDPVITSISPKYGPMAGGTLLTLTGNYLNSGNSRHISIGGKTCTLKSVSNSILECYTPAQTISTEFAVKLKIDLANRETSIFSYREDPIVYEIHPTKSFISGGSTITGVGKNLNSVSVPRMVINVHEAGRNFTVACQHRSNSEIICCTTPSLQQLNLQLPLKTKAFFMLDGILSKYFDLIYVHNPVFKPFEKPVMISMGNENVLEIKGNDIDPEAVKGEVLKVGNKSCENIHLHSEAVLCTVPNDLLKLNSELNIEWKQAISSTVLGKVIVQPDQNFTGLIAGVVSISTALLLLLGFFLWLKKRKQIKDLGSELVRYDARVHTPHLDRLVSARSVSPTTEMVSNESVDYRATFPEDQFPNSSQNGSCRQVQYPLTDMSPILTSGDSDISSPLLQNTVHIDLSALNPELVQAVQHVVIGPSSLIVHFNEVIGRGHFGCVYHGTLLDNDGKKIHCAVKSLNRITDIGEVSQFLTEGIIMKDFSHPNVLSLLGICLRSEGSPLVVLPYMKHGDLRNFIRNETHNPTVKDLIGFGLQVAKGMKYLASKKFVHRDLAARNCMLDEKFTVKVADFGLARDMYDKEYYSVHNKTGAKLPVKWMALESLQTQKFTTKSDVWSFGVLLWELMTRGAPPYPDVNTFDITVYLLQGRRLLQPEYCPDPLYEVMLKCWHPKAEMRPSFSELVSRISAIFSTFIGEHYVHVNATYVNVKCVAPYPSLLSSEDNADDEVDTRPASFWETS

Binder	average % of cell viability, H1666 cells, antibody 0.02 nM [1]	average % of cell viability, H1666 cells, antibody 0.05 nM [1]	average % of cell viability, H1666 cells, antibody 0.14 nM [1]	average % of cell viability, H1666 cells, antibody 0.41 nM [1]	average % of cell viability, H1666 cells, antibody 1.23 nM [1]	average % of cell viability, H1666 cells, antibody 3.70 nM [1]	average % of cell viability, H1666 cells, antibody 11.11 nM [1]	average % of cell viability, H1666 cells, antibody 33.33 nM [1]	average % of cell viability, H1666 cells, antibody 100 nM [1]	Kd [2]	koff [2]	kon [2]	average % of cell viability (CellTiter-Glo), H596 cells + 50 ng/mL HGF, antibody 0.4 nM [3]	average % of cell viability (CellTiter-Glo), H596 cells + 50 ng/mL HGF, antibody 1.2 nM [3]	average % of cell viability (CellTiter-Glo), H596 cells + 50 ng/mL HGF, antibody 3.7 nM [3]	average % of cell viability (CellTiter-Glo), H596 cells + 50 ng/mL HGF, antibody 11.1 nM [3]	average % of cell viability (CellTiter-Glo), H596 cells + 50 ng/mL HGF, antibody 33.3 nM [3]	Kd [4]	koff [4]	kon [4]	further results
anti-MET/EGFR multifunctional antibody NH-YK (bispecific antibody, human IgG4 S228P, kappa, F234A L235A, Tetravalent: anti-MET C8-H241 human IgG4 with an anti-EGFR YK scFv fused by a glycine-rich linker to the N-terminus of each heavy chain) heavy: not shown light: DIQMTQSPSSLSASVGDRVTITCSVSSSVSSIYLHWYQQKPGKAPKLLIYSTSNLASGVPSRFSGSGSGTDFTLTISSLQPEDFATYYCQVYSGYPLTFGGGTKVEIKRTVAAPSVFIFPPSDEQLKSGTASVVCLLNNFYPREAKVQWKVDNALQSGNSQESVTEQDSKDSTYSLSSTLTLSKADYEKHKVYACEVTHQGLSSPVTKSFNRGEC	106%	105%	87.2%	65.5%	45.6%	36.9%	31.9%	27.9%	26.4%	0.19 nM	0.00075 s⁻¹	4e+06 M⁻¹ s⁻¹	113%	108%	104%	107%	101%	0.84 nM	6.3e-05 s⁻¹	75000 M⁻¹ s⁻¹	average % of cell viability (CellTiter-Glo), H596 cells + 50 ng/mL HGF, antibody 100 nM [3]: 102%; % cell surface MET remaining, H441 cells, 50 nM antibody overnight, FACS [5]: 58%; AVG of MFI (staining of cell surface MET), H441 cells, 50 nM antibody overnight, FACS [5]: 44.9 MFI
anti-MET/EGFR multifunctional antibody H9 (bispecific antibody, human IgG4 S228P, kappa, F234A L235A, Tetravalent: anti-MET C8-H241 human IgG4 with an anti-EGFR H9 scFv fused to the heavy chain C-terminus) heavy: not shown light: DIQMTQSPSSLSASVGDRVTITCSVSSSVSSIYLHWYQQKPGKAPKLLIYSTSNLASGVPSRFSGSGSGTDFTLTISSLQPEDFATYYCQVYSGYPLTFGGGTKVEIKRTVAAPSVFIFPPSDEQLKSGTASVVCLLNNFYPREAKVQWKVDNALQSGNSQESVTEQDSKDSTYSLSSTLTLSKADYEKHKVYACEVTHQGLSSPVTKSFNRGEC	–	–	–	–	–	–	–	–	–	0.32 nM	0.00018 s⁻¹	570000 M⁻¹ s⁻¹	–	–	–	–	–	1.15 nM	0.000109 s⁻¹	95000 M⁻¹ s⁻¹	–
anti-MET/EGFR multifunctional antibody YK (bispecific antibody, human IgG4 S228P, kappa, F234A L235A, Tetravalent: anti-MET C8-H241 human IgG4 with an anti-EGFR YK scFv fused to the heavy chain C-terminus) heavy: not shown light: DIQMTQSPSSLSASVGDRVTITCSVSSSVSSIYLHWYQQKPGKAPKLLIYSTSNLASGVPSRFSGSGSGTDFTLTISSLQPEDFATYYCQVYSGYPLTFGGGTKVEIKRTVAAPSVFIFPPSDEQLKSGTASVVCLLNNFYPREAKVQWKVDNALQSGNSQESVTEQDSKDSTYSLSSTLTLSKADYEKHKVYACEVTHQGLSSPVTKSFNRGEC	–	–	–	–	–	–	–	–	–	0.44 nM	0.00057 s⁻¹	1.3e+06 M⁻¹ s⁻¹	–	–	–	–	–	0.26 nM	3.3e-05 s⁻¹	126000 M⁻¹ s⁻¹	–
anti-MET/EGFR multifunctional antibody NH-H9 (bispecific antibody, human IgG4 S228P, kappa, F234A L235A, Tetravalent: anti-MET C8-H241 human IgG4 with an anti-EGFR H9 scFv fused to the N-terminus of each heavy chain) heavy: not shown light: DIQMTQSPSSLSASVGDRVTITCSVSSSVSSIYLHWYQQKPGKAPKLLIYSTSNLASGVPSRFSGSGSGTDFTLTISSLQPEDFATYYCQVYSGYPLTFGGGTKVEIKRTVAAPSVFIFPPSDEQLKSGTASVVCLLNNFYPREAKVQWKVDNALQSGNSQESVTEQDSKDSTYSLSSTLTLSKADYEKHKVYACEVTHQGLSSPVTKSFNRGEC	105%	100%	77.8%	52.9%	38.6%	31.6%	26.6%	24.1%	23.1%	0.1 nM	0.00018 s⁻¹	1.8e+06 M⁻¹ s⁻¹	107%	102%	103%	105%	102%	0.75 nM	7.9e-05 s⁻¹	105000 M⁻¹ s⁻¹	average % of cell viability (CellTiter-Glo), H596 cells + 50 ng/mL HGF, antibody 100 nM [3]: 102%
